{"source": "patent US20110059095A1", "binders": {"B1": {"name": "H3M620N (antibody, V domains shown)", "VH": "EVQLVESGGNVVRPGGSLRLSCAASGFTFDDYGMTWVRQVPGKGLEWVSGINWNGGSTDYADSVKGRFTISRDNAKNSLYLQMNSLRAEDTALYYCARDKGFYGMDVWGQGTTVTVSS", "VL": "DIVMTQSPDSLAVSLGERATINCKSSQNPLYNSNKKKYLAWYQQKPGQPPKLVIYWASTRESGVPDRFSGSGSGTDFTLTITSLQAEDVAVYYCQQYYSTPYTFGQGTKLEIK"}, "B2": {"name": "H4H581P (antibody, human IgG4, V domains shown)", "VH": "QVQLVESGGGVVQPGRSLRLSCVASGFTFSRYGIHWVRQAPGKGLEWVIVISYDGINKYYADSVKGRFTISRDNSKNTVYLQMNSLRAEDTAVYYCAKGDFWSGYFDYWGQGTLVTVSS", "VL": "DIVMTQTPLSSPVTLGQPASISCRSSQSLVHSDGNTYLSWLHQRPGQPPRLLIYKISNRFSGVPDRFSGSGAGTDFTLQISRVEAEDVGIYYCMQATQFPTFGGGTKVEIK"}, "B3": {"name": "H2M609N (antibody, V domains shown)", "VH": "EVQLVESGGGLVQPGRSLRLSCAASGFTFDDYAMHWVRQAPGKGLEWVSGISWNSGSKGFADSVKGRFTISRDNAKNSLYLQMNSLRVEDTALYYCAKENWSFDYWGQGTLVTVSS", "VL": "DIVMTQTPLSSPVTLGQPASISCRSSQSLVHSDGNIYLSWLQQRPGQPPRLLIYKISNRFSGVPDRFSGSGAGTDFTLKISRVEAEDVGIYYCMQASHFPYTFGQGTKLEIK"}, "B4": {"name": "H1M619N (antibody, V domains shown)", "VH": "B3 VH with P14A, K58R, F60Y, Y80H, N84Y, V88A", "VL": "B3 VL with I36T, N58Y, E84A, A85T, I90V, S97T, H98Q, F99L"}, "B5": {"name": "H2M611N (antibody, V domains shown)", "VH": "EVQLLESGGGLVQPGGSLRLSCAASGFTFSSYAMTWVRQAPGKGLYWVSAISGSGGSAYYADSVKGRFTISRDNSKNTLYLQMNSLRAEDTAVYYCAKEGDSGYDLDYWGRGTLVTVSS", "VL": "DIQMTQSPSSLSASVGDRVTITCRARQGISNYLAWLQQKPGKAPKSLIYAASSLQSGVPSKFSGSGSGTDFTLTISSLQPEDFATYYCQQYKSSPLTFGGGTKVEIK"}, "B6": {"name": "Human Kallikrein 14 (enzyme, UniProt Q9P0G3 25-251, looked up)", "chain": "IIGGHTCTRSSQPWQAALLAGPRRRFLCGGALLSGQWVITAAHCGRPILQVALGKHNLRRWEATQQVLRVVRQVTHPNYNSRTHDNDLMLLQLQQPARIGRAVRPIEVTQACASPGTSCRVSGWGTISSPIARYPASLQCVNINISPDEVCQKAYPRTITPGMVCAGVPQGGKDSCQGDSGGPLVCRGQLQGLVSWGMERCALPGYPGVYTNLCKYRSWIEETMRDK"}}, "key": {"[1]": {"biological_target": "full length human PAR-2 (human) (UniProt P55085)", "sequence (P55085 26-397 G138A limits assumed)": "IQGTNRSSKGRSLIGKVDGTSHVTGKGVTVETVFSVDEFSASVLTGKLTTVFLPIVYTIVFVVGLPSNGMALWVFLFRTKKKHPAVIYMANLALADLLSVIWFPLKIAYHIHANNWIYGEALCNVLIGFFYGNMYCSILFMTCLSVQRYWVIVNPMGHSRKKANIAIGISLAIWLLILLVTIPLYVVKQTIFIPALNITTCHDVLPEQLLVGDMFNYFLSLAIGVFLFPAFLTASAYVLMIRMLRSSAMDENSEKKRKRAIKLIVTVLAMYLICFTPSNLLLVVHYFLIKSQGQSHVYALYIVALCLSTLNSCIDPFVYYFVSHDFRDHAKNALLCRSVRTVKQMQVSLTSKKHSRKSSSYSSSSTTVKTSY", "assay": "cell ELISA, 10 ug/ml antibody"}, "[2]": {"biological_target": "full length mouse PAR-2 (mouse) (UniProt P55086)", "sequence (P55086 other isoform, or with tags, fused parts or gaps limits assumed)": "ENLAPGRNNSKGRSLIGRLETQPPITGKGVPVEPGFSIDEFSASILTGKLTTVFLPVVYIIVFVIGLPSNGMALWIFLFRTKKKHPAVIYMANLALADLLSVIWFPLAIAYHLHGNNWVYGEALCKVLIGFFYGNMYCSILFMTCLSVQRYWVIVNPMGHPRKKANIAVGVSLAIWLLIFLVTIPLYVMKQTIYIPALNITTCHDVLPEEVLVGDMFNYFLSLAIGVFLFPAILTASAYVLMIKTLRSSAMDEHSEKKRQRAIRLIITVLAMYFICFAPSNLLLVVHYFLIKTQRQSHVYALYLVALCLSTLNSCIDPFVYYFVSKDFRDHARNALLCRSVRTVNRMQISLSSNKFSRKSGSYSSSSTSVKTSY", "assay": "cell-based or functional assay"}, "monkey PAR-2 (monkey)": {"biological_target": "monkey PAR-2 (monkey)", "assay": "cell-based or functional assay"}, "[3]": {"biological_target": "full length human PAR-2 (human) (UniProt P55085)", "assay": "cell-based or functional assay"}}, "note": "Residue numbers refer to the chain shown, from its start.", "data": [{"binder": "B1", "values": [{"measurement": "A450 ratio (293/D9/hPAR-2rec to 293/D9 cells)", "setting": "[1]", "value": 1.24}]}, {"binder": "B2", "values": [{"measurement": "H4H581P IC50, NF-kB-luciferase, Bovine Factor Xa", "setting": "[2]", "value": 340, "unit": "nM"}, {"measurement": "H4H581P IC50, NF-kB-luciferase, Human Factor Xa", "setting": "[2]", "value": 109, "unit": "nM"}, {"measurement": "H4H581P IC50, NF-kB-luciferase, Human Kallikrein 14", "setting": "[2]", "value": 256, "unit": "nM"}, {"measurement": "H4H581P IC50, NF-kB-luciferase, Human Pancreatic Trypsin", "setting": "[2]", "value": 491, "unit": "nM"}]}, {"binder": "B3", "values": [{"measurement": "A450 ratio (293/D9/hPAR-2rec to 293/D9 cells)", "setting": "[1]", "value": 1.54}]}, {"binder": "B4", "values": [{"measurement": "A450 ratio (293/D9/hPAR-2rec to 293/D9 cells)", "setting": "[1]", "value": 1.51}]}, {"binder": "B5", "values": [{"measurement": "A450 ratio (293/D9/hPAR-2rec to 293/D9 cells)", "setting": "[1]", "value": 1.76}]}, {"binder": "B6", "values": [{"measurement": "EC50 of activator, NF-kB-luciferase", "setting": "monkey PAR-2 (monkey)", "value": 6.3, "unit": "nM"}, {"measurement": "EC50 of activator, NF-kB-luciferase", "setting": "[3]", "value": 5, "unit": "nM"}, {"measurement": "EC50 of activator, NF-kB-luciferase", "setting": "[2]", "value": 8, "unit": "nM"}]}]}
